According to publication PMC2992532, “A tryptophan-rich peptide acts as a transcription activation domain” (BMC Molecular Biology, 2010):

Molecular target: T1, LexA-TFIIB fusion protein (UniProt P29055 1-345)
T1 sequence (looked up): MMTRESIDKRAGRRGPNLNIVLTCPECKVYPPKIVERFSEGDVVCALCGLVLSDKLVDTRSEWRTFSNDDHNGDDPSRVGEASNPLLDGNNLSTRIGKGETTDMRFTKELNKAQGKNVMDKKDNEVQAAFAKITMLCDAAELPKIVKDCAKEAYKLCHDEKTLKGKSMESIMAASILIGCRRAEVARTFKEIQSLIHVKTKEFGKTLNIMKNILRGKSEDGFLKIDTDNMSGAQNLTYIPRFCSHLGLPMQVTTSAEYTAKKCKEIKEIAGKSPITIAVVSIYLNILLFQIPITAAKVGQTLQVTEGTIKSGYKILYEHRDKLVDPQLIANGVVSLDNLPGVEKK
Experiment: cell-based or functional assay

## WWWWWWW [B42-W7 fusion protein (heptatryptophan, W7)]
  transcriptional activity (beta-gal reporter) of W7 fused to LexA, relative to the native pentapeptide WYDWW fused to LexA: ~3 fold
